The values below come from patent publication US20240174744A1 (SCIRHOM, published 2024).

This test deals with T1, hiR2-FL-WT-FLAG (human iRhom2 full length wild type C-terminally tagged with the triple-FLAG epitope) (human, UniProt Q6PJF5 1-856).
T1 construct: also called expressed by MEF-DKO-hiR2-FL-WT-FLAG cells
T1 sequence: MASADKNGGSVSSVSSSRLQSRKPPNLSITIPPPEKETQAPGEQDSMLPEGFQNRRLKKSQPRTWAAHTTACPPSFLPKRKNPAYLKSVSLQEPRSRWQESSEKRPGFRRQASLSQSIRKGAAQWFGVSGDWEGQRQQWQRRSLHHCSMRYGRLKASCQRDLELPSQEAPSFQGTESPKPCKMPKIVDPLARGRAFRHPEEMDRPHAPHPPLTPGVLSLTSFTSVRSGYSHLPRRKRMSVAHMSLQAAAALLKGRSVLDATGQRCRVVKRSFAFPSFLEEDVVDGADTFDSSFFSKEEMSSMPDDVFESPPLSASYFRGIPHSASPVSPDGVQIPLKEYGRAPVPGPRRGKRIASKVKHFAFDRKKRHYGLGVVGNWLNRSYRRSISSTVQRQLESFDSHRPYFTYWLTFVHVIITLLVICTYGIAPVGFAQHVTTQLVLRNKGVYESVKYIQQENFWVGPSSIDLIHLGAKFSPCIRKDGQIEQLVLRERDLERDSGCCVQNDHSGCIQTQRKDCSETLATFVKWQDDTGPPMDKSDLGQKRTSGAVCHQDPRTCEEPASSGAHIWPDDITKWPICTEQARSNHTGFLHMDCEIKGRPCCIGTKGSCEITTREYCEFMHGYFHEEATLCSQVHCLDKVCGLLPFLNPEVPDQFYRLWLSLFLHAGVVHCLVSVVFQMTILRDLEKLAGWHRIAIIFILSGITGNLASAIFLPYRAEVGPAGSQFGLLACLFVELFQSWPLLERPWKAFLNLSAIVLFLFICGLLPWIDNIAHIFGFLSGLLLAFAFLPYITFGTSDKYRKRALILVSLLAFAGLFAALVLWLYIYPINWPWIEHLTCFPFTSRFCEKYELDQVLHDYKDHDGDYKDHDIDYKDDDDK
Nature of the test: FACS, MEF-DKO-hiR2-FL-WT-FLAG cells, 3 µg/ml. How it is done: In brief, immortalized MEF-DKO-EV control cells, MEF-DKO-hiR2-FL-WT-FLAG cells and MEF-DKO-miR2-FL-WT-FLAG cells were harvested with 10 mM EDTA in PBS, washed and resuspended in FACS buffer (PBS, 3% FBS, 0.05% sodium azide), and seeded in Nunc U-bottom 96-well plates (Thermo Fisher Scientific, USA) at approximately 3×10⁵ cells per well. To pellet cells and remove supernatants, the plates were centrifuged at 1,500 rpm and 4° C. for 3 minutes. For primary staining, cells were resuspended in 100 μl per well of either FACS buffer alone (controls), mouse monoclonal anti-FLAG IgG (Sigma-Aldrich, USA) at 3 μg/ml FACS buffer or the antibodies of the present disclosure also at 3 μg/ml FACS buffer and incubated on ice for 1 hour. Afterwards, plates were centrifuged at 1,500 rpm and 4° C. for 3 minutes and washed twice with 200 μl per well of FACS buffer. For secondary staining, cells were spun down and resuspended in 100 μl per well of PE-conjugated goat anti-mouse IgG F(ab′)2 detection fragment (Dianova, Germany) diluted 1:100 in FACS buffer. Protected from light, the cell suspensions were incubated on ice for 1 hour. Plates were then centrifuged at 1,500 rpm and 4° C. for 3 minutes and washed three times with 200 μl per well of FACS buffer. Finally, cells were resuspended in 150 μl per well of FACS buffer and analyzed using a BD Accuri™ C6 Plus flow cytometer (Becton Dickinson, Germany).

B1: antibody 47 (antibody, V domains shown)
VH: QVQLQQSGAELVRPGTSVKVSCKASGYAFTNYLIEWVKQRPGQGLEWIGVINPGSGFTNYNEKFKGKAILNADKSSSTAYMQLISLTSEDSAVYFCARDLKRAMDHWGQGTSVTVSS
VL: DIQMTQSPASQSASLGESVTITCLASQTIGTWLAWYQQKPGKSPQLLIHAATSLADGVPSRFSGSGSGTKFSFKISSLQAEDFVSYYCQQIYSSPYTFGGGTKLEIK
notes: Mouse IgG, kappa light chain; also called clone #47
Regarding B1, the binding result is “binds”.

B2: antibody 51 (antibody, V domains shown)
VH: QVQLQQSGAELVKPGASVKISCKASGYTFSNYWMNWVKQRPGKGLEWIGQIYPGDGDTKYNGKFKNKATLTADKSSSTAYMQFSSLTSEDSAVYFCARGDLVFVYWGLGTLVTVSA
VL: DVQITQSPSYLAVSPGETITINCRASKNIRKYLAWYQEKPGKTNKLLIYSGSTSQSGVPSRFSGSGSGTDFTLTISSLEPEDFAMYYCQQHNEYPYTFGGGTKLEIK
notes: Mouse IgG, kappa light chain; also called clone #51
With B2, the binding result is given as “binds”.
